Measurements reported in patent US20150377899A1.

Assays:
[1] = target: natural human Fc region prepared by papain digestion of human monoclonal IgG (Chugai Pharmaceutical Co., Ltd.) (human); experiment: SPR Biacore T100, Fc immobilized on CM5, peptide as analyte
[2] = target: natural human Fc region prepared by papain digestion of human monoclonal IgG (Chugai Pharmaceutical Co., Ltd.) (human); experiment: SPR Biacore T100, Fc immobilized on CM5, Scatchard plot of equilibrium values
[3] = target: natural human Fc region prepared by papain digestion of human monoclonal IgG (Chugai Pharmaceutical Co., Ltd.) (human); experiment: SPR, KD compared
[4] = target: human Fc region manufactured by Jackson ImmunoResearch Laboratories, Inc. (human); experiment: SPR Biacore T100, Fc immobilized on CM5, peptide as analyte
[5] = target: human Fc region manufactured by Jackson ImmunoResearch Laboratories, Inc. (human); experiment: SPR, KD compared
[6] = target: natural human Fc region prepared by papain digestion of human monoclonal IgG (Chugai Pharmaceutical Co., Ltd.) (human); experiment: SPR Biacore T100, Fc immobilized on CM5, polypeptide as analyte

Row | Kd [1] | Kd [6] | Binder | other results
1 | 0.12 µM |  | DAAWHLGELVWATYYDPETGTWQPDWLYMTTR [pep14 peptide] | 
2 |  |  | DAAWHLGELVWAT [FcIII-Ala peptide] | Kd [2]: 42 µM
3 | 0.51 µM |  | DAAWHLGELVWATYYDPETGTWAPDWRLMQGQ [pep11 peptide] | 
4 |  |  | DAAWHLGELVWATYYDPETGTWEPDWQRMLGQ [pep24 peptide] | fold higher affinity against the particular sequence (FcIII-Ala) [3]: 190 fold
5 | 0.1 µM |  | DAAWHLGELVWATYYDPETGTWLPDWQTMAQK [pep21 peptide] | fold improvement in affinity against the FcIII-Ala peptide [3]: 420 fold
6 |  |  | GVVRQWSGGGGSGGGGRSSIAYGGG [2A1Gly peptide] | Kd [4]: 23 µM; binding affinity as a fraction of that of the 2A1 peptide [5]: < 0.001
7 | 0.0016 µM |  | p17-2 peptide (designed binder) GPGISAFSPGRGVYDPETGTWYDAAWHLGELVWATYYDPETGTWEPDWQRMLGQ | fold improvement in binding affinity against the FcIII-Ala peptide [3]: 26000 fold; fold improvement in binding affinity against the pep24 peptide [3]: 138 fold
8 |  | 0.0056 µM | p17_P46A (designed binder) GPGISAFSPGRGVYDPETGTWYDAAWHLGELVWATYYDPETGTWEADWQRMLGQ | 
9 |  | 0.18 µM | p17_M51A (designed binder) GPGISAFSPGRGVYDPETGTWYDAAWHLGELVWATYYDPETGTWEPDWQRALGQ | fold reduction in binding affinity against p17-2 [3]: > 100 fold
10 |  | 0.045 µM | p17_D47A (designed binder) GPGISAFSPGRGVYDPETGTWYDAAWHLGELVWATYYDPETGTWEPAWQRMLGQ | 
11 |  | 0.2 µM | p17_W48A (designed binder) GPGISAFSPGRGVYDPETGTWYDAAWHLGELVWATYYDPETGTWEPDAQRMLGQ | fold reduction in binding affinity against p17-2 [3]: > 100 fold
12 |  | 0.0078 µM | p17_R50A (designed binder) GPGISAFSPGRGVYDPETGTWYDAAWHLGELVWATYYDPETGTWEPDWQAMLGQ | 
